B1: SYS (other, yeast, UniProt P25294 1-121, looked up)
chain: MVKETKLYDLLGVSPSANEQELKKGYRKAALKYHPDKPTGDTEKFKEISEAFEILNDPQKREIYDQYGLEAARSGGPSFGPGGPGGAGGAGGFPGGAGGFSGGHAFSNEDAFNIFSQFFGGAGGAQRPRGPQRGKDIKHEISASLEELYKGRTAKLALNKQILCKECEGRGGKKGAVKKCTSCNGQGIKFVTRQMGPMIQRFQTECDVCHGTGDIIDPKDRCKSCNGKKVENERKILEVHVEPGMKDGQRIVFKGEADQAPDVIPGDVVFIVSERPHPNFKRDGDDLIYTLPLSFKESLLGFSKTIQTIDGRTLPLSRVQPVQPSQTSTYPGQGMPTPKNPSQRGNLIVKYKVDYPISLNDAQKRAIDENF
B2: Sis1 (natural protein, yeast, UniProt P25294 1-352, looked up)
chain: MVKETKLYDLLGVSPSANEQELKKGYRKAALKYHPDKPTGDTEKFKEISEAFEILNDPQKREIYDQYGLEAARSGGPSFGPGGPGGAGGAGGFPGGAGGFSGGHAFSNEDAFNIFSQFFGGSSPFGGADDSGFSFSSYPSGGGAGMGGMPGGMGGMHGGMGGMPGGFRSASSSPTYPEEETVQVNLPVSLEDLFVGKKKSFKIGRKGPHGASEKTQIDIQLKPGWKAGTKITYKNQGDYNPQTGRRKTLQFVIQEKSHPNFKRDGDDLIYTLPLSFKESLLGFSKTIQTIDGRTLPLSRVQPVQPSQTSTYPGQGMPTPKNPSQRGNLIVKYKVDYPISLNDAQKRAIDENF
B3: YSY (other, yeast, UniProt P25491 1-105, looked up)
chain: MVKETKFYDILGVPVTATDVEIKKAYRKCALKYHPDKNPSEEAAEKFKEASAAYEILSDPEKRDIYDQFGEDGLSGAGGAGGFPGGGFGFGDDIFSQFFGAGGAQNEDAFNIFSQFFGGSSPFGGADDSGFSFSSYPSGGGAGMGGMPGGMGGMHGGMGGMPGGFRSASSSPTYPEEETVQVNLPVSLEDLFVGKKKSFKIGRKGPHGASEKTQIDIQLKPGWKAGTKITYKNQGDYNPQTGRRKTLQFVIQEKSHKSFKRDGDDLVYEAEIDLLTAIAGGEFALEHVSGDWLKVGIVPGEVIAPGMRKVIEGKGMPIPKYGGYGNLIIKFTIKFPENHFTSEENLKKLEEILPPRIVPAIPKKATVDECVLADFDPAKYNRTRASRGGANYDSDEEEQGGEGVQCASQ
B4: Ydj1 (natural protein, yeast, UniProt P25491 1-409, looked up)
chain: MVKETKFYDILGVPVTATDVEIKKAYRKCALKYHPDKNPSEEAAEKFKEASAAYEILSDPEKRDIYDQFGEDGLSGAGGAGGFPGGGFGFGDDIFSQFFGAGGAQRPRGPQRGKDIKHEISASLEELYKGRTAKLALNKQILCKECEGRGGKKGAVKKCTSCNGQGIKFVTRQMGPMIQRFQTECDVCHGTGDIIDPKDRCKSCNGKKVENERKILEVHVEPGMKDGQRIVFKGEADQAPDVIPGDVVFIVSERPHKSFKRDGDDLVYEAEIDLLTAIAGGEFALEHVSGDWLKVGIVPGEVIAPGMRKVIEGKGMPIPKYGGYGNLIIKFTIKFPENHFTSEENLKKLEEILPPRIVPAIPKKATVDECVLADFDPAKYNRTRASRGGANYDSDEEEQGGEGVQCASQ

Target: the molecule itself
Experiment: SAXS

| Protein | stoichiometry N |
| --- | --- |
| B1 | 2 |
| B2 | 2 |
| B3 | 2 |
| B4 | 2 |
